From patent US20250018040A1 (UNITED STATES OF AMERICA AS REPRESENTED BY THE SECRETARY …, published 2025) come the findings set out here.

The target in assay [1] is T1, full length Fc-mesothelin (UniProt Q13421 296-598, limits assumed).
T1 construct: it is written here as in the name; also called Fc-MSLN; full length mesothelin attached to an Fc protein; not shown: Fc protein
Nature of the assay: Western blot. Here is the method: (§1) A Western blot assay was carried out to test the ability of mAb 15B6 or control mAb MN to bind to full length Fc-mesothelin and shed mesothelin, which had been shed by OVCAR-8 cells. Equal amounts of OVCAR-8 cell growth media were collected. The proteins were resolved by SDS gel electrophoresis. The bands were detected by Western blot using the antibodies MN and/or 15B6. Full length mesothelin attached to an Fc protein was used as positive control and reacts with both antibodies.

The next assay has as its target T2, shed mesothelin (UniProt Q13421 296-585, limits assumed).
T2 construct: also called Shed MSLN; mesothelin shed by OVCAR-8 cells
Description: Western blot of OVCAR-8 growth medium. Here is the method:
as §1

The target of assay [2] is T1, full length Fc-mesothelin. Description: flow cytometry: Fc-mesothelin bound to 293T cells transfected with the CAR vector, detected with fluorescent anti-Fc antibody (column: Expressed by 293T cells?). Here is the method:
293T cells were independently transduced with the CAR-T vectors. Expression of each Fv by the 293T cells was tested. The CAR-T vectors were transfected into 293T cells. After two days of culture, Fc-mesothelin was bound to the cells. The bound Fc protein was detected by a secondary anti-Fc-antibody conjugated to a fluorescent dye using flow cytometry.

T1 sequence (Q13421 other isoform, or with tags, fused parts or gaps limits assumed): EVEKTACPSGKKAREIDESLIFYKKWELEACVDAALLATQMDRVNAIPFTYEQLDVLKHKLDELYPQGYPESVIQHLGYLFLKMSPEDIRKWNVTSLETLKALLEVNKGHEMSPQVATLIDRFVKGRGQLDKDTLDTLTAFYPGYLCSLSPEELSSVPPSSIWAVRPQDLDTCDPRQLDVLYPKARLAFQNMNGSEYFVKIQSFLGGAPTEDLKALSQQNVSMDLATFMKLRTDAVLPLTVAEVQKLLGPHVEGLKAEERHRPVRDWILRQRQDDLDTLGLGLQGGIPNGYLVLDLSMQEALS
T2 sequence (Q13421 other isoform, or with tags, fused parts or gaps limits assumed): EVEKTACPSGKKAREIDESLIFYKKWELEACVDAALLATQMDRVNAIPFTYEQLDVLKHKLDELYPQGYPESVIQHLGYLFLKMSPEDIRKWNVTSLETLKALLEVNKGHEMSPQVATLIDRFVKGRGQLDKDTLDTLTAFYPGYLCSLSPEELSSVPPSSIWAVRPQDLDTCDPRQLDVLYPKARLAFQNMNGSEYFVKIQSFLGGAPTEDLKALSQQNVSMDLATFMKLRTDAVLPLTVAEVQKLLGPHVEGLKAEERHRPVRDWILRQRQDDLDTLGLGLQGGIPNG

B1: mAb 15B6 (antibody, mouse IgG2b, V domains shown)
VH: EVQLQQSGPVLVKPGASVKISCKASGYSFTGYYMHWVRQSLVKRLEWIGRINPYTGVPSYKHNFKDKASLTVDKSSSTAYMELHSLTSEDSAVYYCARELGGYWGQGTTLTVSS
VL: QAVVTQESALTTSPGETVTLTCRSSTGAVTTGNYPNWVQEKPDHLFTGLIAGTNNRAPGVPARFSGSLIGDKAALTITGAQTEDEAIYFCALWFSSHWVFGGGTKLTVL
notes: Murine IgG2b; For flow cytometry it was conjugated to ALEXA FLUOR 647; also called monoclonal antibody 15B6; 15B6 (IgG2b)
With B1, the binding result is reported as “binds” in assay [1] and “no binding” with shed mesothelin.

B2: CAR Construct No. 2, 15B6 scFv (Vh-lin-Vl) (other)
chain: MEVQLQQSGPVLVKPGASVKISCKASGYSFTGYYMHWVRQSLVKRLEWIGRINPYTGVPSYKHNFKDKASLTVDKSSSTAYMELHSLTSEDSAVYYCARELGGYWGQGTTLTVSSGGGGSGGGGSGGGGSQAVVTQESALTTSPGETVTLTCRSSTGAVTTGNYPNWVQEKPDHLFTGLIAGTNNRAPGVPARFSGSLIGDKAALTITGAQTEDEAIYFCALWFSSHWVFGGGTKLTVLTSTTTPAPRPPTPAPTIASQPLSLRPEACRPAAGGAVHTRGLDFACDIYIWAPLAGTCGVLLLSLVITKRGRKKLLYIFKQPFMRPVQTTQEEDGCSCRFPEEEEGGCELRVKFSRSADAPAYQQGQNQLYNELNLGRREEYDVLDKRRGRDPEMGGKPRRKNPQEGLYNELQKDKMAEAYSEIGMKGERRRGKGHDGLYQGLSTATKDTYDALHMQALPPR
notes: Chimeric antigen receptor on 293T cells or T cells
Take B2: in assay [2], the binding result is on record as “binds”.
